Experimental data published in a protein production outcome set (Wang et al. 2014).

test: label from the status in PepcDB records
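Further: failed if final PepcDB status was selected cloned or expressed and not failed if soluble or beyond.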

Row | Sequence | protein production
1 | MSDAQKFQLGTIGALSLSVVSSVSIVICNKALISTLGFTFATTLTSWHLLVTFCSLHVALWMKFFEHKPFDPRAVLGFGVLNVNFSTFLVIGKTSPVTYQVLGHLKTCLVLAFGYLLLKDAFSWRNILGILVAVIGMVLYSYYCTLETQQKATETSTQLPQMDENEKDPLVSAENGSGLISDNGVQKQDPVWNSNKDFQA | failed
2 | MSDCSFIIVGGGGHARVVASTLRRLGETILGFTDPDEEATLGDGIEHLGRDKILTEKDPSKVALTMGMGSVRDTGHRAGLFTEQVENGFRFPTLIHPDAVLASEAKTKAGVQVMAGGVIQPGASLGENVIVNTNASVDHDCQIGAHSHVASGATLSGEVVLESQVHVGTGASIIQGVDVGKNSVVGAGAVVIEDVPPETVVIGVPAHPK | failed
3 | MSDDPEDRMLGWDESVFRDEHVFEIDWLPETFKHRDTQMETLKYALRPAVRGSRPLNVIARGPPGTGKTTAVQILFDELTAQTDVKTVRVNCQMDSTRYAVFSRLFAEIFDYEPPSSGISFKKLFSQITDKLVEEDEVLVVALDDVNYLFYESEASDTLYSLLRAHEAHSGAKIGVICVSSDLELDTIDALDTRVQSVFRPEEVYFNPYGQAEIADILGERADRGFNEGVVGPTVLDRVAELTEEQGGDLRVGIDLLRRAGMNAEMRASRSVETEDVEAAYDKSKYVHLSRRLRELSDSETALVEVIAAHDGQQAGDIYDAFSEQTDLGYTRYSEIINKLDQLDIIDADYTNVEGRGRSRELTLNYDADAVLERL | failed
4 | MSDEGPGTGPGNGLGEKGDTSGPEGSGGSGPQRRGGDNHGRGRGRGRGRGGGRPGAPGGSGSGPRHRDGVRRPQKRPSCIGCKGTHGGTGAGAGAGGAGAGGGGRGRGGSGGRGRGGSGGRRGRGRERARGGSRERARGRGRGRGEKRPRSPSSQSSSSGSPPRRPPPGRRPFFHPVGEADYFEYHQEGGPDGEPDVPPGAIEQGPADDPGEGPSTGPRGQGDGGRRKKGGWFGKHRGQGGSNPKFENIAEGLRALLARSHVERTTDEGTWVAGVFVYGGSKTSLYNLRRGTALAIPQCRLTPLSRLPFGMAPGPGPQPGPLRESIVCYFMVFLQTHIFAEVLKDAIKDLVMTKPAPTCNIRVTVCSFDDGVDLPPWFPPMVEGAAAEGDDGDDGDEGGDGDEGEEGQELEHHHHHH | failed
5 | MSDEHRFSRLRPLSLGLLAPLAVLLTGCGGPNLIERLSIGNWGFWGTVIIVLDLVALVDLLGDGTRSTTSTVVWALLIVFAPVLGVILYFIFGRE | failed
6 | MSDFLQTTHLIIILCFLQQFLCTRMDIVIWLTCTTVPLSRRGRIGLGGSVILHVSDIHCSLRRLEDIISSLPVKPSTVAATGDFECEKAAVAIVEWSRREGVPLVAVTGNLDHAGVRRVLRSAGVLMDGRVDRVGGLVFGGVGGMDPRTSMEMLLRSLESSGLTVDVLLTHHPPHGVLDTTFAGVRAGLHDLRSLVDSLKPRAHLFGHIHESPGIESIGGTVFVNPGPAYEGRYALVRILGSVVKAELYTA | failed
7 | MSDFSNELHTQIQYSLIEKLSESERRYRELVDSLREIVFKCDRLGNLNFLNRAWTNTLGYGITDAIGSALSNFIDLDDQYLWSETLEKLQTGVEVCQKLRFYHQTGAIVWLELSAQPQSETEFSGSLINITDVYDELRLRKHAEGLLKQTNEELEARVEQRNIELIQANHDLKVTLDKLKYTQAQLVQTEKMSSLGQLVAGIAHEINNPVNFI | failed
8 | MSDIESLGEAAGLFEEPEDFLPPPPKPHFAEYQRSHITKESKSDVKDIKLRLVGTSPLWGHLLWNAGIYTANHLDSHPELIKGKTVLELGAAAALPSVICALNGAQMVVSTDYPDPDLMQNIDYNIKSNVPEDFNNVSTEGYIWGNDYSPLLAHIEKIGNNNGKFDLIILSDLVFNHTEHHKLLQTTKDLLAEKGQALVVFSPHRPKLLEKDLEFFELAKNEFHLVPQLIEMVNWKPMFDEDEETIEVRSRVYAYYLTHEK | failed
9 | MSDIISIKDIDLAKKKVFIRCDFNVPQDDFLNITDDRRIRSAIPTIRYCLDNGCSVILASHLGRPKEISSKYSLEPVAKRLARLLDKEIVMAKDVIGEDAKTKAMNLKAGEILLLENLRFEKGETKNDENLAKELASMVQVYINDAFGVCHRAHSSVEAITKFFDEKHKGAGFLLQKEIDFASNLIKHPARPFVAVVGGSKVSGKLQALTNLLPKVDKLIIGGGMAFTFLKALGYDIGNSLLEEELLEEANKILTKGKNLGVKIYLPVDVVAAPACSQDVPMKFVPAQEIPNGWMGLDIGPASVRLFKEVISDAQTIWWNGPMGVFEIDKFSKGSIKMSHYISEGHATSVVGGGDTADVVARAGDADEMTFISTGGGASLELIEGKELPGVKALRSKENE | not failed
10 | MSDKGTDTKDKEKKAGKKKTASDRIEVRQSGVHGKGVYAIGQIAEGERVIEYKGEHISWKEALKRHPHDPNDPNHTFYFSLDDGDVIDAKFGGNRARWINHACDPNCEAREKKGRVFIHALRDIEPGEELFYDYGLVIDARYTKKLKQEYECRCGSPKCRGTMLAPKDKK | failed
11 | MSDLAMANPAPERTVMQHVRPLPYEADFTGFLSNTVAPRWMEALRIQRMRTCFPHFDSGAPQHLCIITETTVRYRKPVRYSDAIVGKAWLQSARYSRWIIAFSFAFEFSGLPAFEGRQAGTFIDPQTHLPLPIPASLRLPADH | failed
12 | MSDLSQLIVAPILLPLITAAIMLLLGEKHRHIKARLNLLSTFSGLAIAACLLLWVRTQGQAASIGVYLPGNWPAPFGIVLVVDHLSALLLTLTGVIGFSALLFARARWDGAGASFHALFQIQLMGLYGAFLTADLFNLFVFFEVLLAASYGLLLHGSGRARVRAGLHYIAINLFASSLFLIGAAMLYGVTGTLNMADLALKIPLVPEADRGLLHAGAAILAMAFLVKAGIWPLNFWLVPAYASASAPVAALFAIMTKVGLYAVLRLWTLLFSGQAGASAHFGGEWLVYGGLVTLAVAAVSILAAQRLERMAALSILVSAGTLLGAVGFAQAALTGAALFYLVNSTLALCALFLLAELVERSRSANEAPLDEEEDAMPPPLESLHPPKGINLDDEQQVVIGQIIPWTMAFLGLSFIACALLIIGMPPLSGFVGKLNLISALFNPLGLGVPAEQPLSAAGWGLVALLILSGLASLIAFGRVGIQRFWKPEERPSPVLRRYECLPIVILLGLCLILSFKAEPLLRYTQDTAASLQAPDAYIKAVMAAQPIPGPTSRDVQVQP | failed
13 | MSDLTFNKIAGGVLLTGLVIFGLREASSIVFSKPEVEKAGYEIAVQEESAGGAAVVESLPDWNAVLTPANVAAGQAVAAKCAACHKFDASNANGTGPGLWDVVGRKPAAHADFNYSTGMKEFAAKTPVWDYDHLYEFLKAPGKYVSGTNMTFVGLKKQEDRIAMIAYMHSLGSKLPVPPPRPVAAPAPAEGAAPAAEGAAPAAEGAAPAAAGAAPAAPAAAAPAAPKA | failed
14 | MSDLVKIRDVSLSTPYVSVIGKITGIHKKEYESDGTTKSVYQGYIEDDTARIRISSFGKQLQDSDVVRIDNARVAQFNGYLSLSVGDSSRIESVNVNIPLEHHHHHH | not failed
15 | MSDLVSYHLDDGVATLTLNNGKVNAISPDVIIAFNAALDQAEKDRAIVIVTGQPGILSGGYDLKVMTSSAEAAINLVAQGSTLARRMLSHPFPIIVACPGHAVAKGAFLLLSADYRIGVAGPFSIGLNEVQIGMTMHHAGIELARDRLRKSAFNRSVINAEMFDPEGAMAAGFLDKVVSVEELQGAALAVAAQLKKINMNAHKKTKLKVRKGLLDTLDAAIEQDRQHML | not failed
16 | MSDNKPFGGSFGSNGGQYATTVQYGGTAAAPAKVSLGDTPAAAPAGDVIKDTTTAAFAADVIQESRRQPVLVDFWAPWCGPCKQLTPQLEKAVRAAGGKVKLVKMNIDDHPSIAGQLGIQSIPAVIAFKDGQPVDGFMGAIPESQIAEFITKVGGKGNGAPAVAEALAAATEAREAGDMQTAADIFDAILAQAPETIEAIAGLGELLFEAGDTEGAEALLATAPEAKKDAPVLAALRAKMALAAQAAELGNPAEFERRLAENPKDHQARFDLAMIQNARGERTAAADNLLAIIKADRGWNEDGARTQLLQFFEAWGMTDEATLAARRKLSALLFS | failed
17 | MSDPLTAQEQHKRRQAVRELMPRTPFIGGLGIVFERYEPDDVVIRLPFRTDLTNDGTYFHGGVIASVMDTAGAAAAWSNHDFDRGTRAATVAMSIQYTGAAKRCDLLCHARTARRRKELTFTEITATDPDGNIVAHAVQTYRIVLEHHHHHH | failed
